{"source": "paper PMC3156243", "about": "“Properties and Crystal Structure of Methylenetetrahydrofolate Reductase from Thermus thermophilus HB8” (PLoS ONE, 2011)", "test_in_all_cases": "purified protein", "key": {"purified protein [1]": {"substrate": "Nc1nc2c(c(=O)[nH]1)N1CN(c3ccc(C(=O)N[C@@H](CCC(=O)O)C(=O)O)cc3)C[C@H]1CN2", "settings": "FAD; 50.0 °C"}, "purified protein [2]": {"substrate": "NC(=O)C1=CN([C@@H]2O[C@H](COP(=O)(O)OP(=O)(O)OC[C@H]3O[C@@H](n4cnc5c(N)ncnc54)[C@H](O)[C@@H]3O)[C@@H](O)[C@H]2O)C=CC1", "settings": "FAD; 25.0 °C"}, "purified protein [3]": {"substrate": "Cc1cc2nc3c(=O)[nH]c(=O)nc-3n(C[C@H](O)[C@H](O)[C@H](O)COP(=O)(O)OP(=O)(O)OC[C@H]3O[C@@H](n4cnc5c(N)ncnc54)[C@H](O)[C@@H]3O)c2cc1C", "settings": "active center of the β[…]α[…] barrel; Glu18 near the si-face of the isoalloxazine ring, Asp109 near C2; non-covalently bound; varied: cofactor"}}}
{"protein": "MTHFR (methylenetetrahydrofolate reductase) (Thermus thermophilus HB8) (protein) MKIRDLLKARRGPLFSFEFFPPKDPEGEEALFRTLEELKAFRPAFVSITYGAMGSTRERSVAWAQRIQSLGLNPLAHLTVAGQSRKEVAEVLHRFVESGVENLLALRGDPPRGERVFRPHPEGFRYAAELVALIRERYGDRVSVGGAAYPEGHPESESLEADLRHFKAKVEAGLDFAITQLFFNNAHYFGFLERARRAGIGIPILPGIMPVTSYRQLRRFTEVCGASIPGPLLAKLERHQDDPKAVLEIGVEHAVRQVAELLEAGVEGVHFYTLNKSPATRMVLERLGLRPASGQP", "values": [{"measurement": "Km", "setting": "purified protein [1]", "value": "180 ± 23", "unit": "µM"}, {"measurement": "Km", "setting": "purified protein [2]", "value": "9.7 ± 2.1", "unit": "µM"}, {"measurement": "Km", "setting": "purified protein [3]", "value": 5, "unit": "µM"}]}
